Experimental data reported in patent US20140363428A1 (Chugai, published 2014).
Positions count from the first letter of the chain named.

B1: IgG1-F1353 (antibody)
heavy: QVQLQESGPGLVKPSETLSLTCAVSGHSISHDHAWSWVRQPPGEGLEWIGFISYSGITNYNPSLQGRVTISRDNSKNTLYLQMNSLRAEDTAVYYCARSLARTTAMDYWGEGTLVTVSSASTKGPSVFPLAPSSKSTSGGTAALGCLVKDYFPEPVTVSWNSGALTSGVHTFPAVLQSSGLYSLSSVVTVPSSSLGTQTYICNVNHKPSNTKVDKKVEPKSCDKTHTCPPCPAPELRGGPKVFLFPPKPKDTLYISRTPEVTCVVVDVSHEDPEVKFNWYVDGVEVHNAKTKPREEQYNSTYRVVSVLTVLHQDWLNGKEYKCKVSNKALPAPIEKTISKAKGQPREPQVYTLPPSRDELTKNQVSLTCLVKGFYPSDIAVEWESNGQPENNYKTTPPVLDSDGSFFLYSKLTVDKSRWQQGNVFSCSVMHEALDYHTTRKELSLSP
light: not shown
B2: IgG1-F1354 (antibody)
heavy: B1 heavy with T438F, R440K
light: not shown
B3: IgG1-F1355 (antibody)
heavy: B1 heavy with T438F
light: not shown
B4: IgG1-F1356 (antibody)
heavy: B1 heavy with R237L, G238R, K241S, L330R, D435H, T438V, R440Q, E442S
light: not shown
B5: IgG1-F1357 (antibody)
heavy: B1 heavy with S256T, D435H
light: not shown
B6: IgG1-F1358 (antibody)
heavy: B1 heavy with S256T, D435H, T438F, R440K
light: not shown
B7: IgG1-F1359 (antibody)
heavy: B1 heavy with S256T, D435H, T438F
light: not shown
B8: IgG1-F1360 (antibody)
heavy: B1 heavy with S256T, R440K
light: not shown
B9: IgG1-F1361 (antibody)
heavy: B1 heavy with S256T
light: not shown
B10: IgG1-F1362 (antibody)
heavy: B1 heavy with S256T, T438F, R440K
light: not shown
B11: IgG1-F1364 (antibody)
heavy: B1 heavy with T258E, D435H, T438F, R440K
light: not shown
B12: IgG1-F1365 (antibody)
heavy: B1 heavy with T258E, R440K
light: not shown
B13: IgG1-F1366 (antibody)
heavy: B1 heavy with T258E, T438F, R440K
light: not shown
B14: IgG1-F1367 (antibody)
heavy: B1 heavy with S256T, T258E, D435H
light: not shown
B15: IgG1-F1368 (antibody)
heavy: B1 heavy with S256T, T258E, D435H, T438F, R440K
light: not shown
B16: IgG1-F1370 (antibody)
heavy: B1 heavy with S256T, T258E, T438V, R440K
light: not shown
B17: IgG1-F1371 (antibody)
heavy: B1 heavy with S256T, T258E, T438V
light: not shown
B18: IgG1-F1372 (antibody)
heavy: B1 heavy with S256T, T258E
light: not shown
B19: IgG1-F1373 (antibody)
heavy: B1 heavy with S256T, T258E, T438F, R440K
light: not shown
B20: IgG1-F1375 (antibody)
heavy: B1 heavy with S256T, D435H, T438V, R440Q, E442S
light: not shown
B21: IgG1-F1376 (antibody)
heavy: B1 heavy with S256T, T258E, D435H, T438V, R440Q, E442S
light: not shown
B22: IgG1-F1377 (antibody)
heavy: B1 heavy with T258E, D435H, T438V, R440Q, E442S
light: not shown
B23: IgG1-F1378 (antibody)
heavy: B1 heavy with D435H, R440Q, E442S
light: not shown
B24: IgG1-F1379 (antibody)
heavy: B1 heavy with D435H, T438F, R440Q, E442S
light: not shown
B25: IgG1-F1411 (antibody)
heavy: QVQLQESGPGLVKPSETLSLTCAVSGHSISHDHAWSWVRQPPGEGLEWIGFISYSGITNYNPSLQGRVTISRDNSKNTLYLQMNSLRAEDTAVYYCARSLARTTAMDYWGEGTLVTVSSASTKGPSVFPLAPSSKSTSGGTAALGCLVKDYFPEPVTVSWNSGALTSGVHTFPAVLQSSGLYSLSSVVTVPSSSLGTQTYICNVNHKPSNTKVDKKVEPKSCDKTHTCPPCPAPELLGGPSVFLFPPKPKDTLMISRTPEVTCVVVDVSHEDPEVKFNWYVDGVEVHNAKTKPREEQYNSTYRVVSVLTPLHQDWLNGKEYKCKVSNKALPAPVEKTISKAKGQPREPQVYTLPPSRDELTKNQVSLTCLVKGFYPSDIAVEWESNGQPENNYKTTPPVLDSDGSFFLYSKLTVDKSRWQQGNVFSCSVLHEALHSHYTQKSLSLSP
light: not shown
B26: IgG1-F1413 (antibody)
heavy: B1 heavy with S256T, T258E, T309Q, Q313A, T438V, R440K
light: not shown
B27: IgG1-F1414 (antibody)
heavy: B1 heavy with S256T, T258E, T309Q, T438V, R440K
light: not shown
B28: IgG1-F1415 (antibody)
heavy: B1 heavy with S256T, T258E, Q313A, T438V, R440K
light: not shown
B29: IgG1-F1416 (antibody)
heavy: B1 heavy with S256T, T258E, V310P, T438V, R440K
light: not shown
B30: IgG1-F1417 (antibody)
heavy: B1 heavy with S256T, T258E, Y436W, T438V, R440K
light: not shown
B31: IgG1-F1418 (antibody)
heavy: B1 heavy with S256T, T258E, Y436W, T438V
light: not shown
B32: IgG1-F1419 (antibody)
heavy: B1 heavy with Y436W, T438V
light: not shown
B33: IgG1-F1421 (antibody)
heavy: B25 heavy with V334I, S436W
light: not shown
B34: IgG1-F1422 (antibody)
heavy: B1 heavy with T258E, V310P, T438V
light: not shown
B35: IgG1-F1423 (antibody)
heavy: B1 heavy with T258E, V304D, V310P, T438V
light: not shown
B36: IgG1-F1424 (antibody)
heavy: B1 heavy with T258E, V304E, V310P, T438V
light: not shown
B37: IgG1-F1425 (antibody)
heavy: B1 heavy with T258E, V305D, V310P, T438V
light: not shown
B38: IgG1-F1426 (antibody)
heavy: B1 heavy with T258E, V305E, V310P, T438V
light: not shown
B39: IgG1-F1428 (antibody)
heavy: B1 heavy with T258E, S306E, V310P, T438V
light: not shown
B40: IgG1-F1430 (antibody)
heavy: B1 heavy with T258E, V307E, V310P, T438V
light: not shown
B41: IgG1-F1433 (antibody)
heavy: B1 heavy with T258E, T309D, V310P, T438V
light: not shown
B42: IgG1-F1434 (antibody)
heavy: B1 heavy with T258E, T309E, V310P, T438V
light: not shown
B43: F1646 (antibody)
chain 1: B1 heavy with S256T, T258E, D435K, T438V, R440K, E442D
chain 2: DIQMTQSPSSLSASVGDSVTITCQASTDISSHLNWYQQKPGKAPELLIYYGSHLLSGVPSRFSGSGSGTDFTFTISSLEAEDAATYYCGQGNRLPYTFGQGTKVEIERTVAAPSVFIFPPSDEQLKSGTASVVCLLNNFYPREAKVQWKVDNALQSGNSQESVTEQDSKDSTYSLSSTLTLSKADYEKHKVYACEVTHQGLSSPVTKSFNRGEC
B44: F1647 (antibody)
chain 1: B1 heavy with S256T, T258E, D435P, T438V, R440K
chain 2: B43 chain 2
B45: F1648 (antibody)
chain 1: B1 heavy with S256T, T258E, D435P, T438V, E442D
chain 2: B43 chain 2
B46: F1649 (antibody)
chain 1: B1 heavy with S256T, T258E, D435P, T438V, R440K, E442D
chain 2: B43 chain 2
B47: F1650 (antibody)
chain 1: B1 heavy with S256T, T258E, D435R, T438V, R440K
chain 2: B43 chain 2

Each binder was assayed against T1, soluble human FcRn (human, UniProt P55899 24-297; P61769 21-119) (assay: SPR (Biacore), pH 7.0, 25 C;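 note: antibodies captured on a protein L-coated CM4 chip with human FcRn injected as analyte, KD obtained from ka and kd fitted to sensorgrams, in sodium phosphate buffer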).
T1 construct: Heterodimer of alpha chain and beta2-microglobulin; also called hFcRn
T1 sequence (P55899 24-297 limits assumed, chain 1 of 2): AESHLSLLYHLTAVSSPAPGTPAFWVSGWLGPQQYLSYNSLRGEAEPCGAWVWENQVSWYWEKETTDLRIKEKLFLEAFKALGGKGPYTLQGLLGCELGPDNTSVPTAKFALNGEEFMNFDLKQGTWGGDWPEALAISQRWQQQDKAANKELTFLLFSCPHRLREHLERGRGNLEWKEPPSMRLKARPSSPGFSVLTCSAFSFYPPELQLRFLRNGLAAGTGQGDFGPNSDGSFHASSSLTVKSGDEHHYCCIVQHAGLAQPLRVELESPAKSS
T1 sequence (P61769 21-119 limits assumed, chain 2 of 2): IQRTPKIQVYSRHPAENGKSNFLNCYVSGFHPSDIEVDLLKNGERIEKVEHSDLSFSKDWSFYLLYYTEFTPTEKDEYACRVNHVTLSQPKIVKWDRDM
Protocol: An appropriate amount of protein L (ACTIGEN) was immobilized onto Sensor chip CM4 (GE Healthcare) by the amino coupling method, and the chip was allowed to capture an antibody of interest. Then, diluted FcRn solutions and running buffer (as a reference solution) were injected to allow human FcRn to interact with the antibody captured on the sensor chip. The running buffer used comprised 50 mmol/l sodium phosphate, 150 mmol/l NaCl, and 0.05% (w/v) Tween20 (pH 7.0). FcRn was diluted using each buffer. The chip was regenerated using 10 mmol/l glycine-HCl (pH 1.5). Assays were carried out exclusively at 25 degrees C. The association rate constant ka (1/Ms) and dissociation rate constant kd (1/s), both of which are kinetic parameters, were calculated based on the sensorgrams obtained in the assays, and KD (M) of each antibody for human FcRn was determined from these values. Each parameter was calculated using Biacore T100 Evaluation Software (GE Healthcare).

Question: For B1, which Kd is on record?
Answer: The Kd was 430 nM.

Question: How did the Kd turn out when B2 was run?
Answer: Its Kd is 230 nM.

Question: B3 was tested. Which Kd did it give?
Answer: The Kd was 250 nM.

Question: With B4 as the binder, how does the Kd read?
Answer: Its Kd is 160 nM.

Question: Which Kd does the source give for B5 here?
Answer: The Kd was 280 nM.

Question: How did the Kd turn out when B6 was run?
Answer: Its Kd is 91 nM.

Question: Which Kd does the source give for B7 here?
Answer: Its Kd is 130 nM.

Question: For B8, which Kd is on record?
Answer: The Kd was 310 nM.

Question: B9 was tested. Which Kd did it give?
Answer: The Kd was 350 nM.

Question: How did the Kd turn out when B10 was run?
Answer: The Kd was 140 nM.

Question: With B11 as the binder, how does the Kd read?
Answer: Its Kd is 75 nM.

Question: For B12, which Kd is on record?
Answer: The Kd was 310 nM.

Question: With B13 as the binder, how does the Kd read?
Answer: The Kd was 120 nM.

Question: How did the Kd turn out when B14 was run?
Answer: The Kd was 180 nM.

Question: For B15, which Kd is on record?
Answer: Its Kd is 55 nM.

Question: How did the Kd turn out when B16 was run?
Answer: The Kd was 91 nM.

Question: Which Kd does the source give for B17 here?
Answer: The Kd was 110 nM.

Question: For B18, which Kd is on record?
Answer: Its Kd is 230 nM.

Question: For B19, which Kd is on record?
Answer: The Kd was 87 nM.

Question: With B20 as the binder, how does the Kd read?
Answer: Its Kd is 100 nM.

Question: With B21 as the binder, how does the Kd read?
Answer: Its Kd is 91 nM.

Question: With B22 as the binder, how does the Kd read?
Answer: The Kd was 83 nM.

Question: For B23, which Kd is on record?
Answer: The Kd was 360 nM.

Question: With B24 as the binder, how does the Kd read?
Answer: Its Kd is 280 nM.

Question: With B25 as the binder, how does the Kd read?
Answer: Its Kd is 170 nM.

Question: Which Kd does the source give for B26 here?
Answer: Its Kd is 37 nM.

Question: With B27 as the binder, how does the Kd read?
Answer: Its Kd is 56 nM.

Question: B28 was tested. Which Kd did it give?
Answer: Its Kd is 59 nM.

Question: With B29 as the binder, how does the Kd read?
Answer: The Kd was 13 nM.

Question: With B30 as the binder, how does the Kd read?
Answer: The Kd was 59 nM.

Question: For B31, which Kd is on record?
Answer: Its Kd is 75 nM.

Question: Which Kd does the source give for B32 here?
Answer: The Kd was 150 nM.

Question: Which Kd does the source give for B33 here?
Answer: Its Kd is 32 nM.

Question: With B34 as the binder, how does the Kd read?
Answer: Its Kd is 19 nM.

Question: For B35, which Kd is on record?
Answer: Its Kd is 16 nM.

Question: Which Kd does the source give for B36 here?
Answer: Its Kd is 16 nM.

Question: B37 was tested. Which Kd did it give?
Answer: Its Kd is 19 nM.

Question: How did the Kd turn out when B38 was run?
Answer: Its Kd is 18 nM.

Question: For B39, which Kd is on record?
Answer: Its Kd is 15 nM.

Question: For B40, which Kd is on record?
Answer: Its Kd is 31 nM.

Question: Which Kd does the source give for B41 here?
Answer: The Kd was 45 nM.

Question: Which Kd does the source give for B42 here?
Answer: Its Kd is 36 nM.

The binders below were run against T1, soluble human FcRn (assay: SPR (Biacore), pH 7.0).

Question: With B16 as the binder, how does the Kd read?
Answer: The Kd was 91 nM.

Question: With B17 as the binder, how does the Kd read?
Answer: Its Kd is 110 nM.

Question: For B23, which Kd is on record?
Answer: Its Kd is 360 nM.

Question: With B24 as the binder, how does the Kd read?
Answer: Its Kd is 280 nM.

Question: How did the Kd turn out when B26 was run?
Answer: The Kd was 37 nM.

Question: For B29, which Kd is on record?
Answer: Its Kd is 13 nM.

Question: Which Kd does the source give for B32 here?
Answer: The Kd was 150 nM.

Question: For B43, which Kd is on record?
Answer: The Kd was 35 nM.

Question: With B44 as the binder, how does the Kd read?
Answer: Its Kd is 38 nM.

Question: Which Kd does the source give for B45 here?
Answer: Its Kd is 38 nM.

Question: Which Kd does the source give for B46 here?
Answer: The Kd was 37 nM.

Question: With B47 as the binder, how does the Kd read?
Answer: The Kd was 40 nM.
